Assay results: FireProtDB (doi:10.1007/s00775-020-01777-0)

B1: Cytochrome c-553 wild type, B8C6L5 (protein)
chain: MKLTIVAALIASASAWTTPKSFESVKAAVAGAAVTAGVAVSPAFAGDVGAGEQIFNANCAACHAGGQNVIMPDKTLEKEALEQYLAGGRNEKAVMTQVTNGKNAMPAFGGRLSDEDIANVASYVIATSEAGWD
B2: Cytochrome c-553 wild type, A0A1E7EP28 (protein)
chain: MKFAIFATLLVSASAFSINKADVAKAAAAGAIAFSVAAGPAFAGDVGAGEQIFNANCAACHAGGQNVIMPEKTLEKEALDQYLSGGRSEKSVMTQVTNGKNAMPAFGGRLSEEDIANVASYVISSAEAGWEE

conditions: Thalassiosira pseudonana; pH 7.4; 15 °C; GdnHCl; UV/Vis spectroscopy; HEPES; potassium ferricyanide; transition: 2; reversible: > 90% (Yes); whole UniProt chain shown

Protein	denaturant m value	denaturant midpoint (higher = more stable)	unfolding free energy
B1	2.1 kcal/mol/M	1.2 M	2.63 kcal/mol

same assay, conditions: Thalassiosira pseudonana; pH 7.4; Thermal; UV/Vis spectroscopy; HEPES; transition: 2; reversible: > 90% (Yes); whole UniProt chain shown

Protein	Tm	unfolding enthalpy (van 't Hoff)
B1	39.1 °C	38.7 kcal/mol

same assay, conditions: Fragilariopsis cylindrus CCMP1102; pH 7.4; 15 °C; GdnHCl; UV/Vis spectroscopy; HEPES; potassium ferricyanide; transition: 2; reversible: > 90% (Yes); whole UniProt chain shown

Protein	denaturant m value	denaturant midpoint (higher = more stable)	unfolding free energy
B2	4.6 kcal/mol/M	0.5 M	2.15 kcal/mol

same assay, conditions: Fragilariopsis cylindrus CCMP1102; pH 7.4; Thermal; UV/Vis spectroscopy; HEPES; transition: 2; reversible: > 90% (Yes); whole UniProt chain shown

Protein	Tm	unfolding enthalpy (van 't Hoff)
B2	28.8 °C	44.7 kcal/mol
